Test results published in patent publication USRE47150 (Bayer, dated 2018).
One block for each binder: values may come before it.

How the values were obtained:
[1] = molecular target: T1, human tissue factor pathway inhibitor (TFPI) (human, UniProt P10646 29-304, limits assumed); experiment: competitive ELISA
T1 construct: bought; also called hTFPI; human TFPI
T1 sequence (looked up): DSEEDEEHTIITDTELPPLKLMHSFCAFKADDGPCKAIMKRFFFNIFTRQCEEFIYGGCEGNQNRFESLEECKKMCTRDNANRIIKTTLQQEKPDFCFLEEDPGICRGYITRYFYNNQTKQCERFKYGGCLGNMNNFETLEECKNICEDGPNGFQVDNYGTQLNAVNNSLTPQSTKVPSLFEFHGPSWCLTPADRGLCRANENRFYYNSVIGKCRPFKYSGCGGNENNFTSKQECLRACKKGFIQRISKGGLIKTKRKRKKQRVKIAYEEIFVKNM

[2] = molecular target: T2, mouse tissue factor pathway inhibitor (TFPI) (mouse, UniProt O54819 29-289, limits assumed); experiment: equilibrium ELISA
T2 construct: bought; also called mTFPI; murine TFPI
T2 sequence (looked up): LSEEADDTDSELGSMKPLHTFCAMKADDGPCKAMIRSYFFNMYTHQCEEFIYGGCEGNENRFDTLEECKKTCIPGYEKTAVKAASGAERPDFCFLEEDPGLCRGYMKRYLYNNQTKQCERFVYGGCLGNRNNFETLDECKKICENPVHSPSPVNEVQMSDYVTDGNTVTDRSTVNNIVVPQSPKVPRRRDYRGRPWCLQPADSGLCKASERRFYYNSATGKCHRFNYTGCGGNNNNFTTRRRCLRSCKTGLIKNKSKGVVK

[3] = molecular target: T2, mouse tissue factor pathway inhibitor …; experiment: SPR, TFPI immobilized
[4] = molecular target: T1, human tissue factor pathway inhibitor …; experiment: SPR, TFPI immobilized
[5] = molecular target: T1, human tissue factor pathway inhibitor …; experiment: competitive ELISA; remark: listed apart in the source
[6] = molecular target: T2, mouse tissue factor pathway inhibitor …; experiment: competitive ELISA

B3: 4B7 LC_Y37F (Fab, V domains shown)
VH: QVQLQQSGPGLVKPSQTLSLTCAISGDSVSSNSAAWSWIRQSPGRGLEWLGIIYKRSKWYNDYAVSVKSRITINPDTSKNQFSLQLNSVTPEDTAVYYCARWHSDKHWGFDYWGQGTLVTVSS
VL: DIVMTQSPLSLPVTPGEPASISCRSSQSLVFSDGNTFLNWYLQKPGQSPQLLIYKGSNRASGVPDRFSGSGSGTDFTLKISRVEAEDVGVYYCQQYDSYPLTFGQGTKVEIKR
variant/wild-type [1]: 3.6 ratio
variant/wild-type [2]: 1.9 ratio

B7: 4B7 LC_S61C (Fab, V domains shown)
VH: QVQLQQSGPGLVKPSQTLSLTCAISGDSVSSNSAAWSWIRQSPGRGLEWLGIIYKRSKWYNDYAVSVKSRITINPDTSKNQFSLQLNSVTPEDTAVYYCARWHSDKHWGFDYWGQGTLVTVSS
VL: DIVMTQSPLSLPVTPGEPASISCRSSQSLVFSDGNTYLNWYLQKPGQSPQLLIYKGSNRACGVPDRFSGSGSGTDFTLKISRVEAEDVGVYYCQQYDSYPLTFGQGTKVEIKR
variant/wild-type [1]: 3.1 ratio
variant/wild-type [2]: 15.3 ratio

B8: 4B7 LC_S32R (Fab, V domains shown)
VH: QVQLQQSGPGLVKPSQTLSLTCAISGDSVSSNSAAWSWIRQSPGRGLEWLGIIYKRSKWYNDYAVSVKSRITINPDTSKNQFSLQLNSVTPEDTAVYYCARWHSDKHWGFDYWGQGTLVTVSS
VL: DIVMTQSPLSLPVTPGEPASISCRSSQSLVFRDGNTYLNWYLQKPGQSPQLLIYKGSNRASGVPDRFSGSGSGTDFTLKISRVEAEDVGVYYCQQYDSYPLTFGQGTKVEIKR
variant/wild-type [1]: 4.2 ratio
variant/wild-type [2]: 7.8 ratio

B9: 4B7 LC_N35T (Fab, V domains shown)
VH: QVQLQQSGPGLVKPSQTLSLTCAISGDSVSSNSAAWSWIRQSPGRGLEWLGIIYKRSKWYNDYAVSVKSRITINPDTSKNQFSLQLNSVTPEDTAVYYCARWHSDKHWGFDYWGQGTLVTVSS
VL: DIVMTQSPLSLPVTPGEPASISCRSSQSLVFSDGTTYLNWYLQKPGQSPQLLIYKGSNRASGVPDRFSGSGSGTDFTLKISRVEAEDVGVYYCQQYDSYPLTFGQGTKVEIKR
variant/wild-type [1]: 5.4 ratio
variant/wild-type [2]: 3.4 ratio

B11: 4B7 LC_N35L LC_G56A (Fab, V domains shown)
VH: QVQLQQSGPGLVKPSQTLSLTCAISGDSVSSNSAAWSWIRQSPGRGLEWLGIIYKRSKWYNDYAVSVKSRITINPDTSKNQFSLQLNSVTPEDTAVYYCARWHSDKHWGFDYWGQGTLVTVSS
VL: DIVMTQSPLSLPVTPGEPASISCRSSQSLVFSDGLTYLNWYLQKPGQSPQLLIYKASNRASGVPDRFSGSGSGTDFTLKISRVEAEDVGVYYCQQYDSYPLTFGQGTKVEIKR
variant/wild-type [1]: 3.1 ratio
variant/wild-type [2]: 6.9 ratio

B12: B18.5 (4B7 HC N32D+D62Q+Y112D/LC F31I+D33F+N35I) (Fab, V domains shown)
VH: QVQLQQSGPGLVKPSQTLSLTCAISGDSVSSDSAAWSWIRQSPGRGLEWLGIIYKRSKWYNQYAVSVKSRITINPDTSKNQFSLQLNSVTPEDTAVYYCARWHSDKHWGFDDWGQGTLVTVSS
VL: DIVMTQSPLSLPVTPGEPASISCRSSQSLVISFGITYLNWYLQKPGQSPQLLIYKGSNRASGVPDRFSGSGSGTDFTLKISRVEAEDVGVYYCQQYDSYPLTFGQGTKVEIKR
KD fold improvement [3]: 139 fold
Kd [3]: 395 pM
koff [3]: 0.00043 s⁻¹
kon [3]: 1.09e+06 M⁻¹ s⁻¹
variant/HC_D62R [5]: 22.4 ratio
variant/HC_D62R [6]: 14 ratio
KD fold improvement [4]: 428 fold
Kd [4]: 26 pM
koff [4]: 3.18e-05 s⁻¹
kon [4]: 1.23e+06 M⁻¹ s⁻¹

B15: B9.7 (4B7 HC N32D+D62R+Y112D/LC S32R+N35I) (Fab, V domains shown)
VH: QVQLQQSGPGLVKPSQTLSLTCAISGDSVSSDSAAWSWIRQSPGRGLEWLGIIYKRSKWYNRYAVSVKSRITINPDTSKNQFSLQLNSVTPEDTAVYYCARWHSDKHWGFDDWGQGTLVTVSS
VL: DIVMTQSPLSLPVTPGEPASISCRSSQSLVFRDGITYLNWYLQKPGQSPQLLIYKGSNRASGVPDRFSGSGSGTDFTLKISRVEAEDVGVYYCQQYDSYPLTFGQGTKVEIKR
KD fold improvement [3]: 588 fold
Kd [3]: 93.1 pM
koff [3]: 0.000334 s⁻¹
kon [3]: 3.59e+06 M⁻¹ s⁻¹
variant/HC_D62R [5]: 26.1 ratio
variant/HC_D62R [6]: 30.1 ratio
KD fold improvement [4]: 1270 fold
Kd [4]: 8.78 pM
koff [4]: 2.61e-05 s⁻¹
kon [4]: 2.97e+06 M⁻¹ s⁻¹

Now from value to binder:

variant/wild-type [1]: 1.7 ratio
variant/wild-type [2]: 1.3 ratio
B1: 4B7 LC_F31M (Fab, V domains shown)
VH: QVQLQQSGPGLVKPSQTLSLTCAISGDSVSSNSAAWSWIRQSPGRGLEWLGIIYKRSKWYNDYAVSVKSRITINPDTSKNQFSLQLNSVTPEDTAVYYCARWHSDKHWGFDYWGQGTLVTVSS
VL: DIVMTQSPLSLPVTPGEPASISCRSSQSLVMSDGNTYLNWYLQKPGQSPQLLIYKGSNRASGVPDRFSGSGSGTDFTLKISRVEAEDVGVYYCQQYDSYPLTFGQGTKVEIKR

KD fold improvement [3]: 6250 fold
Kd [3]: 8.75 pM
koff [3]: 2.36e-05 s⁻¹
kon [3]: 2.7e+06 M⁻¹ s⁻¹
KD fold improvement [4]: 1450 fold
Kd [4]: 7.65 pM
koff [4]: 1.56e-05 s⁻¹
kon [4]: 2.03e+06 M⁻¹ s⁻¹
B2: gB9.7-IgG (4B7 HC N32D+G44S+K55Y+D62R+Y112D/LC S32R+N35I) (antibody, V domains shown)
VH: QVQLQQSGPGLVKPSQTLSLTCAISGDSVSSDSAAWSWIRQSPSRGLEWLGIIYYRSKWYNRYAVSVKSRITINPDTSKNQFSLQLNSVTPEDTAVYYCARWHSDKHWGFDDWGQGTLVTVSS
VL: DIVMTQSPLSLPVTPGEPASISCRSSQSLVFRDGITYLNWYLQKPGQSPQLLIYKGSNRASGVPDRFSGSGSGTDFTLKISRVEAEDVGVYYCQQYDSYPLTFGQGTKVEIKR
notes: IgG format by its name

variant/wild-type [1]: 1.9 ratio
variant/wild-type [2]: 8.2 ratio
B4: 4B7 LC_N35V LC_G56D (Fab, V domains shown)
VH: QVQLQQSGPGLVKPSQTLSLTCAISGDSVSSNSAAWSWIRQSPGRGLEWLGIIYKRSKWYNDYAVSVKSRITINPDTSKNQFSLQLNSVTPEDTAVYYCARWHSDKHWGFDYWGQGTLVTVSS
VL: DIVMTQSPLSLPVTPGEPASISCRSSQSLVFSDGVTYLNWYLQKPGQSPQLLIYKDSNRASGVPDRFSGSGSGTDFTLKISRVEAEDVGVYYCQQYDSYPLTFGQGTKVEIKR

variant/wild-type [1]: 1.6 ratio
variant/wild-type [2]: 2.2 ratio
B5: 4B7 LC_S57Y (Fab, V domains shown)
VH: QVQLQQSGPGLVKPSQTLSLTCAISGDSVSSNSAAWSWIRQSPGRGLEWLGIIYKRSKWYNDYAVSVKSRITINPDTSKNQFSLQLNSVTPEDTAVYYCARWHSDKHWGFDYWGQGTLVTVSS
VL: DIVMTQSPLSLPVTPGEPASISCRSSQSLVFSDGNTYLNWYLQKPGQSPQLLIYKGYNRASGVPDRFSGSGSGTDFTLKISRVEAEDVGVYYCQQYDSYPLTFGQGTKVEIKR

variant/wild-type [1]: 2 ratio
variant/wild-type [2]: 6.7 ratio
B6: 4B7 LC_S32Y (Fab, V domains shown)
VH: QVQLQQSGPGLVKPSQTLSLTCAISGDSVSSNSAAWSWIRQSPGRGLEWLGIIYKRSKWYNDYAVSVKSRITINPDTSKNQFSLQLNSVTPEDTAVYYCARWHSDKHWGFDYWGQGTLVTVSS
VL: DIVMTQSPLSLPVTPGEPASISCRSSQSLVFYDGNTYLNWYLQKPGQSPQLLIYKGSNRASGVPDRFSGSGSGTDFTLKISRVEAEDVGVYYCQQYDSYPLTFGQGTKVEIKR

KD fold improvement [3]: 1210 fold
Kd [3]: 45.1 pM
koff [3]: 0.000315 s⁻¹
kon [3]: 6.99e+06 M⁻¹ s⁻¹
variant/HC_D62R [5]: 26.2 ratio
variant/HC_D62R [6]: 40 ratio
KD fold improvement [4]: 2180 fold
Kd [4]: 5.1 pM
koff [4]: 3.81e-05 s⁻¹
kon [4]: 7.46e+06 M⁻¹ s⁻¹
B10: B2.0 (4B7 HC N32D+D62R+Y112D/LC S32R+D33F+N35I+D97T) (Fab, V domains shown)
VH: QVQLQQSGPGLVKPSQTLSLTCAISGDSVSSDSAAWSWIRQSPGRGLEWLGIIYKRSKWYNRYAVSVKSRITINPDTSKNQFSLQLNSVTPEDTAVYYCARWHSDKHWGFDDWGQGTLVTVSS
VL: DIVMTQSPLSLPVTPGEPASISCRSSQSLVFRFGITYLNWYLQKPGQSPQLLIYKGSNRASGVPDRFSGSGSGTDFTLKISRVEAEDVGVYYCQQYTSYPLTFGQGTKVEIKR

variant/wild-type [1]: 3.6 ratio
variant/wild-type [2]: 7.1 ratio
B13: 4B7 LC_N35I (Fab, V domains shown)
VH: QVQLQQSGPGLVKPSQTLSLTCAISGDSVSSNSAAWSWIRQSPGRGLEWLGIIYKRSKWYNDYAVSVKSRITINPDTSKNQFSLQLNSVTPEDTAVYYCARWHSDKHWGFDYWGQGTLVTVSS
VL: DIVMTQSPLSLPVTPGEPASISCRSSQSLVFSDGITYLNWYLQKPGQSPQLLIYKGSNRASGVPDRFSGSGSGTDFTLKISRVEAEDVGVYYCQQYDSYPLTFGQGTKVEIKR

variant/wild-type [1]: 2.1 ratio
variant/wild-type [2]: 6 ratio
B14: 4B7 LC_N35L (Fab, V domains shown)
VH: QVQLQQSGPGLVKPSQTLSLTCAISGDSVSSNSAAWSWIRQSPGRGLEWLGIIYKRSKWYNDYAVSVKSRITINPDTSKNQFSLQLNSVTPEDTAVYYCARWHSDKHWGFDYWGQGTLVTVSS
VL: DIVMTQSPLSLPVTPGEPASISCRSSQSLVFSDGLTYLNWYLQKPGQSPQLLIYKGSNRASGVPDRFSGSGSGTDFTLKISRVEAEDVGVYYCQQYDSYPLTFGQGTKVEIKR
